Reference: PMC11847078

Assays:
CD4-Nav1.6-CTD-NLuc = CD4-Nav1.6-CTD-NLuc (UniProt Q9UQD0); experiment: split reporter (BiFC, NanoBiT); in-cell split-luciferase complementation assay (LCA); HEK293 cells transiently cotransfected with CD4-Nav1.6-CTD-NLuc and CLuc-GSK3β or a mutant; D-luciferin, 37 °C; peak luminescence as percent of the per-plate control; in one set cells treated with vehicle (0.5% DMSO) or 2 μM CHIR99021 for 1 h before the read-out
GSK3β = GSK3β (UniProt P49841); experiment: split-luciferase complementation assay in HEK293; details: reference: vehicle (0.5% DMSO); sites T1936

Sequence of UniProt Q9UQD0 (Q9UQD0 whole entry): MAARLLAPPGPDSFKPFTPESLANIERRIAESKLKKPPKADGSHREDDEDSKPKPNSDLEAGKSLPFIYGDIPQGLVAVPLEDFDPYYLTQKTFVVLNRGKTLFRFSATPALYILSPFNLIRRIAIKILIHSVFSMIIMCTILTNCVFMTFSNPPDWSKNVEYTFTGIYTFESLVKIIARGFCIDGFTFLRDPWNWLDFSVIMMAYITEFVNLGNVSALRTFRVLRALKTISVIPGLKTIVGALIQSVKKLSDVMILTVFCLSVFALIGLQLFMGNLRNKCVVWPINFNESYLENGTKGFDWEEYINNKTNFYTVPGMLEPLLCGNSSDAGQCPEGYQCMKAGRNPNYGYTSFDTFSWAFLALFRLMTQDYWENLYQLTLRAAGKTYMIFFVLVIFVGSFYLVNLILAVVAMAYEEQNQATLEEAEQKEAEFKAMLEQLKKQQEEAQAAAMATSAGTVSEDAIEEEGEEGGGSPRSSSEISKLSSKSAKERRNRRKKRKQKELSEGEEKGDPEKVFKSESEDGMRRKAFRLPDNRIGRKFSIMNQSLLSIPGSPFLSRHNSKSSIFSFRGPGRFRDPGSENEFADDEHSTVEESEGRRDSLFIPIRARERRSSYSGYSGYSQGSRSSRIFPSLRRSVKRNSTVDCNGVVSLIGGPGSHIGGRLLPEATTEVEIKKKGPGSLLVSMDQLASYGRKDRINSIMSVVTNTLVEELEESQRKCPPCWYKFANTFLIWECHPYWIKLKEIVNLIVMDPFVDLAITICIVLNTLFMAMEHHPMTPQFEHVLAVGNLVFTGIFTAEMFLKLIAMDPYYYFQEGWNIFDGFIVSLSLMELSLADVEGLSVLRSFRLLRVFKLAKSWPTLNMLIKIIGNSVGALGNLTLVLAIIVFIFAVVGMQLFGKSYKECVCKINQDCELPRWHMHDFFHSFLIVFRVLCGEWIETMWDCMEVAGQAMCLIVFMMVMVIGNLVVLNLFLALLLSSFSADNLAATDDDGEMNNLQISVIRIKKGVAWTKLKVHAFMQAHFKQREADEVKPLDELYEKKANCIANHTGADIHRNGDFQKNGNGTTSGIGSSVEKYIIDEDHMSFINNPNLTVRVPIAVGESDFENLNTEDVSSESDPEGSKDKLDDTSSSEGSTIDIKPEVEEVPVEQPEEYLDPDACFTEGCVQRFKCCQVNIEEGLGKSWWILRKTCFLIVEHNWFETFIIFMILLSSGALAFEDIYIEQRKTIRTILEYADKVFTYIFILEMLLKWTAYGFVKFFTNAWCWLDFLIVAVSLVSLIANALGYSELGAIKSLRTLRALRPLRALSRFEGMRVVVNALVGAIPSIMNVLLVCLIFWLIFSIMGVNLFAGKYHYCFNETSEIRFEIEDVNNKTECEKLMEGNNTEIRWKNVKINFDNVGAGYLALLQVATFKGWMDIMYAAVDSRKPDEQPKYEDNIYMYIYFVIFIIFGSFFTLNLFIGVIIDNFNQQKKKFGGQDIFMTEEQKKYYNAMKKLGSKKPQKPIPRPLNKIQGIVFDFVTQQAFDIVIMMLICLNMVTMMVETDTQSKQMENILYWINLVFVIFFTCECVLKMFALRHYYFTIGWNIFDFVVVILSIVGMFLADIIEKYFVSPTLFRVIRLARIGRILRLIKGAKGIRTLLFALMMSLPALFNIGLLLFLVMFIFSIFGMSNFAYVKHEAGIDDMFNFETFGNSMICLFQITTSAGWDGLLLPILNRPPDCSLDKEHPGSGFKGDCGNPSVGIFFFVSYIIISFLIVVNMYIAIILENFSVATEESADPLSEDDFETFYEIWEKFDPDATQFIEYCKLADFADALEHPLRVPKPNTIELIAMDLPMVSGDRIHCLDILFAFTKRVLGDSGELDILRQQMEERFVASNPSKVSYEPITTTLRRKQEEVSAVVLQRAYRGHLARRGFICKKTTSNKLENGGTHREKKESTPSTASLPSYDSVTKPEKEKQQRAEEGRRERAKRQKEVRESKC
Sequence of CLuc-GSK3β (P49841 whole entry): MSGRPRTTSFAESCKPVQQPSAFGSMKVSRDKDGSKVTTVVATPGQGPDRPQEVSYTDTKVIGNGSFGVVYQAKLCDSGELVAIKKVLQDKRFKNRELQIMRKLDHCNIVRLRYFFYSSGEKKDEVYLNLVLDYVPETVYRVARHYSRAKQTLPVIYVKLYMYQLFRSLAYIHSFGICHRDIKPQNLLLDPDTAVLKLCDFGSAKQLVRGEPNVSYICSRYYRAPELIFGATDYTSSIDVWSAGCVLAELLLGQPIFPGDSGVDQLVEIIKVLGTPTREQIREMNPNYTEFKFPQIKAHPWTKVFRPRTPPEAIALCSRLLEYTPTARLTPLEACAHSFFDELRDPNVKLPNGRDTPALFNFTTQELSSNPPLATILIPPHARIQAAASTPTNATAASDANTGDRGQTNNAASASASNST

Row | Substance | % Lum with 2 μM CHIR99021 (relative to Nav1.6:GSK3β + DMSO) (CD4-Nav1.6-CTD-NLuc) | % Lum (luminescence relative to Nav1.6:GSK3β control) (CD4-Nav1.6-CTD-NLuc) | also measured
1 | CLuc-GSK3β (from UniProt P49841 1-420) (enzyme) | 91.2 % Lum | – | % Lum with vehicle (0.5% DMSO; the control to which the set is normalised) (CD4-Nav1.6-CTD-NLuc): 100 % Lum
2 | CLuc-GSK3βΔABD (from UniProt P49841 1-420) (enzyme) | 58.2 % Lum | 42 % Lum | % Lum with vehicle (0.5% DMSO) (relative to Nav1.6:GSK3β + DMSO) (CD4-Nav1.6-CTD-NLuc): 60.9 % Lum
3 | CLuc-GSK3βΔCTD (from UniProt P49841 1-343) (domain or fragment) | – | 167 % Lum | –
4 | Nav1.6 C-terminal domain (CTD) 2 μM CHIR99021, 1 h | – | – | other: % luminescence of WT GSK3β + DMSO control (GSK3β): same; reference 60.9 ± 3.3; percent of reference (GSK3β): same; reference 100.0 ± 4.4
